Assay results: patent US20200283523A1

Target: C1Q (UniProt P02745)
Experiment: ELISA, antibody coated on the plate, C1q titrated (axis [C1q] nM), anti-human C1q-HRP detection

C1Q, sequence (P02745 23-245 limits assumed, chain 1 of 3): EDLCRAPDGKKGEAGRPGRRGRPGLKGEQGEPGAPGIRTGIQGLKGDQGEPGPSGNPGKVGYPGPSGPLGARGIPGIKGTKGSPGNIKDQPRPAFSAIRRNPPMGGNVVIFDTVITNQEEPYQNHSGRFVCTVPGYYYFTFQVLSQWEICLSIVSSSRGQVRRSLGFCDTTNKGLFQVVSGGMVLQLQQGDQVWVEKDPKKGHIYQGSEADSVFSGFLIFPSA
C1Q, sequence (P02746 28-253 limits assumed, chain 2 of 3, further chain): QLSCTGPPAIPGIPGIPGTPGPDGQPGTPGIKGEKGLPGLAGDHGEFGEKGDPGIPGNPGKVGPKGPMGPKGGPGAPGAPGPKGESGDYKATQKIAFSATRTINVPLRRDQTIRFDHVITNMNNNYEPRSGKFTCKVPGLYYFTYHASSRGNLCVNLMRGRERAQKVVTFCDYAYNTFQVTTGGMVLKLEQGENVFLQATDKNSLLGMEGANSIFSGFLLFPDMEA
C1Q, sequence (P02747 29-245 limits assumed, chain 3 of 3, further chain): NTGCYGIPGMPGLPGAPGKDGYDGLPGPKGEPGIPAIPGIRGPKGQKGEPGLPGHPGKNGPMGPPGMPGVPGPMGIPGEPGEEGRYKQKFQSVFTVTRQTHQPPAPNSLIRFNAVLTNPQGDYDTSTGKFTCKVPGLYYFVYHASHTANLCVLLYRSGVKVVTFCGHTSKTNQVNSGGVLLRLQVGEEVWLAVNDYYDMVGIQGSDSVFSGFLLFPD

EC50 (read off the curve): 30 nM
Substance: control human IgG1 antibody
